B1: Azoarcus group I ribozyme (parent)
chain: GUGCCUUGCGCCGGGAAACCACGCAAGGGAUGGUGUCAAAUUCGGCGAAACCUAAGCGCCCGCCCGGGCGUAUGGCAACGCCGAGCCAAGCUUCGGCGCCUGCGCCGAUGAAGGUGUAGAGACUAGACGGCACCCACCUAAGGCAAACGCUAUGGUGAAGGCAUAGUCCAGGGAGUGGCGAAAGUCACACAAACCGG

Variants of: B1
Experiment: reverse-splicing fitness (ratio to wild type); higher = more active; in vitro selection; Mg2+ level not given
Procedure, shortened: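 An in vitro group I ribozyme library with randomized positions was T7-transcribed and gel-purified. In triplicate, 10 pmol RNA in EPPS pH 7.5 was reacted with 50 pmoles of a 30-nt RNA substrate for 1 h at 37 °C across several added MgCl2 levels (1–48 mM), then stopped with EDTA. Products were reverse transcribed from a substrate-complementary primer, PCR-amplified and sequenced (HiSeq 4000). Fitness is a variant's read proportion after selection over that before, normalised to wild type.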

Variant	reverse-splicing fitness
C82A A111G A120C C150U C169A	0.00986
C82A A111G A120C C150U C169A U176A	0.0187
C82A A111G A120C C150U C169A U176C	0.0154
C82A A111G A120C C150U C169A U176G	0.00635
C82A A111G A120C C150U C169G	0.00852
C82A A111G A120C C150U C169G U176A	0.0173
C82A A111G A120C C150U C169G U176C	0.0203
C82A A111G A120C C150U C169G U176G	0.00643
C82A A111G A120C C150U C169U	0.0116
C82A A111G A120C C150U C169U U176A	0.014
C82A A111G A120C C150U C169U U176C	0.0125
C82A A111G A120C C150U C169U U176G	0.00647
C82A A111G A120C C150U U176A	0.0143
C82A A111G A120C C150U U176C	0.0238
C82A A111G A120C C150U U176G	0.01
C82A A111G A120C C169A	0.00875
C82A A111G A120C C169A U176A	0.0173
C82A A111G A120C C169A U176C	0.0223
C82A A111G A120C C169A U176G	0.00575
C82A A111G A120C C169G	0.00888
C82A A111G A120C C169G U176A	0.0206

Variant	reverse-splicing fitness
C82A A111G A120C C169G U176C	0.0237
C82A A111G A120C C169G U176G	0.00548
C82A A111G A120C C169U	0.0139
C82A A111G A120C C169U U176A	0.016
C82A A111G A120C C169U U176C	0.0138
C82A A111G A120C C169U U176G	0.00535
C82A A111G A120C U176A	0.0208
C82A A111G A120C U176C	0.032
C82A A111G A120C U176G	0.00892
C82A A111G A120G	0.0164
C82A A111G A120G A145C	0.0136
C82A A111G A120G A145C C150A	0.0077
C82A A111G A120G A145C C150A C169A	0.00942
C82A A111G A120G A145C C150A C169A U176A	0.0118
C82A A111G A120G A145C C150A C169A U176C	0.00609
C82A A111G A120G A145C C150A C169A U176G	0.00578
C82A A111G A120G A145C C150A C169G	0.00922
C82A A111G A120G A145C C150A C169G U176A	0.027
C82A A111G A120G A145C C150A C169G U176C	0.0158
C82A A111G A120G A145C C150A C169G U176G	0.00565
C82A A111G A120G A145C C150A C169U	0.00881

Variant	reverse-splicing fitness
C82A A111G A120G A145C C150A C169U U176A	0.0207
C82A A111G A120G A145C C150A C169U U176C	0.0117
C82A A111G A120G A145C C150A C169U U176G	0.00484
C82A A111G A120G A145C C150A U176A	0.0107
C82A A111G A120G A145C C150A U176C	0.00922
C82A A111G A120G A145C C150A U176G	0.00509
C82A A111G A120G A145C C150G	0.00656
C82A A111G A120G A145C C150G C169A	0.00928
C82A A111G A120G A145C C150G C169A U176A	0.00923
C82A A111G A120G A145C C150G C169A U176C	0.00743
C82A A111G A120G A145C C150G C169A U176G	0.00564
C82A A111G A120G A145C C150G C169G	0.00751
C82A A111G A120G A145C C150G C169G U176A	0.00955
C82A A111G A120G A145C C150G C169G U176C	0.00788
C82A A111G A120G A145C C150G C169G U176G	0.0049
C82A A111G A120G A145C C150G C169U	0.00786
C82A A111G A120G A145C C150G C169U U176A	0.0129
C82A A111G A120G A145C C150G C169U U176C	0.0141
C82A A111G A120G A145C C150G C169U U176G	0.00529
C82A A111G A120G A145C C150G U176A	0.0058
C82A A111G A120G A145C C150G U176C	0.0087

Variant	reverse-splicing fitness
C82A A111G A120G A145C C150G U176G	0.00287
C82A A111G A120G A145C C150U	0.0102
C82A A111G A120G A145C C150U C169A	0.00986
C82A A111G A120G A145C C150U C169A U176A	0.0114
C82A A111G A120G A145C C150U C169A U176C	0.00635
C82A A111G A120G A145C C150U C169A U176G	0.00561
C82A A111G A120G A145C C150U C169G	0.00885
C82A A111G A120G A145C C150U C169G U176A	0.0242
C82A A111G A120G A145C C150U C169G U176C	0.0123
C82A A111G A120G A145C C150U C169G U176G	0.00597
C82A A111G A120G A145C C150U C169U	0.0082
C82A A111G A120G A145C C150U C169U U176A	0.0203
C82A A111G A120G A145C C150U C169U U176C	0.0113
C82A A111G A120G A145C C150U C169U U176G	0.00537
C82A A111G A120G A145C C150U U176A	0.00898
C82A A111G A120G A145C C150U U176C	0.0104
C82A A111G A120G A145C C150U U176G	0.00504
C82A A111G A120G A145C C169A	0.00912
C82A A111G A120G A145C C169A U176A	0.0117
C82A A111G A120G A145C C169A U176C	0.00752
C82A A111G A120G A145C C169A U176G	0.00385
